Data on 3 substances can be found in paper PMC9239988 (Nature Communications, 2022).

In general, stoichiometry N refers to a count of units in the complex or per binding partner.

The target in test [1] is TBEV prMe-linker-sE single-chain protein (tick-borne encephalitis virus strain Neudoerfl) (UniProt P14336). The test is described as follows: crystal structure; uncleaved single-chain prMe-linker-sE; PDB 7QRF.
The target of test [2] is Tick-borne encephalitis virus (TBEV) soluble envelope protein E (sE) (Tick-borne encephalitis virus, strain Neudoerfl). In words: crystal structure.
The target is the same in test [3]. In words: SEC-MALS.
Test [4] has as its target TBEV prMe-linker-sE single-chain construct (Tick-borne encephalitis virus, strain Neudoerfl). The test is described as follows: crystal structure; prMe-linker-sE single chain, crystallisation pH 3.5, PDB 7QRF.

In test [1], “TBEV prMe-linker-sE single-chain protein (from UniProt P14336 2-401)” came in with a stoichiometry N of 2.

As to “Tick-borne encephalitis virus (TBEV) soluble envelope protein E (sE) (domain or fragment)”, the stoichiometry N in test [2] and in test [3] was 2 each time.

“TBEV prMe-linker-sE single-chain construct” yielded a stoichiometry N in test [4] of 2.
